Data as given in article PMC3531455, “PTH1 Receptor Is Involved in Mediating Cellular Response to Long-Chain Polyunsaturated Fatty Acids” (PLoS ONE, 2012).
One block for each compound: values may come before it.

Assays:
PTH1 receptor (PTH1R) [1] = target: T1, PTH1 receptor (PTH1R) (Homo sapiens, UniProt Q03431); experiment: competitive fluorescence anisotropy displacement of PTH([…])TMR; supported by PTH-CC FRET conformational sensor; type: binding
T1 construct: PTH1R in membrane fractions of transfected HEK293 cells
T1 sequence (Q03431 27-593): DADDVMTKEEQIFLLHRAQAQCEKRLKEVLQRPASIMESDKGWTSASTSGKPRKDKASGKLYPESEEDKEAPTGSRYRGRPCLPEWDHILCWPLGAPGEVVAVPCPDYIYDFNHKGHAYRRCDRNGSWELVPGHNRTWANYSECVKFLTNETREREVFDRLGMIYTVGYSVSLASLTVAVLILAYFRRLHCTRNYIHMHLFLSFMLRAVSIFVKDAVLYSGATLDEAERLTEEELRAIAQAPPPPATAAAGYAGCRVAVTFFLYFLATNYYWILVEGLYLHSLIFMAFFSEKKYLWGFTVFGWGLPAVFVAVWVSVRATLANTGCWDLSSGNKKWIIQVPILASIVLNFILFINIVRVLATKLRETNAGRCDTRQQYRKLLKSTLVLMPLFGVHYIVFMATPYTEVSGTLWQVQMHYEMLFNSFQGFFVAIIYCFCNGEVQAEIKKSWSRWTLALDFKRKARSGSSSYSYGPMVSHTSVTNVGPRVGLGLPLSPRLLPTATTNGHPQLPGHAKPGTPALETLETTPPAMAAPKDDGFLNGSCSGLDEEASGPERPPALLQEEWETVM

[2] = target: Parathyroid hormone type 1 receptor (PTH1R) (human) (UniProt Q03431); experiment: fluorescence polarisation; fluorescence anisotropy, competitive displacement of 2 nM PTH(1–34)^TMR from PTH1R membrane fractions of transfected HEK293 cells; DPBS, 4 hours, room temperature; 96-well plates, 150 µL; IC50 converted to Ki by the Cheng-Prusoff equation
[3] = target: Parathyroid hormone type 1 receptor (PTH1R) (human) (UniProt Q03431)
PTH1 receptor (PTH1R) [4] = target: T1, PTH1 receptor (PTH1R); experiment: competitive fluorescence anisotropy displacement of PTH([…])TMR; type: binding

Ki (PTH1 receptor (PTH1R) [1]): 0.69 ± 0.25 nM
Compound: CC/C=C\C/C=C\C/C=C\C/C=C\C/C=C\CCCC(=O)O [EPA, eicosapentaenoic acid]

IC50 [2]: 3.43 nM | Ki [2]: 2.4 nM | ERK1/2 phosphorylation (Emax = pERKmax/ERK, western blot) in HEK293 cells transfected with PTH1R, PTH(1–34) dose response, 5 minutes; no significant increase in untransfected HEK293 cells [3]: 3.5 pERK/ERK
Compound: Human PTH(1–34) (peptide)

Ki [2]: 4.66 nM
Compound: Human [Lys-13(Nε-5-carboxy-TMR)]PTH(1–34)NH2 (peptide)

Ki (PTH1 receptor (PTH1R) [4]): 0.54 ± 0.16 nM
Compound: CC/C=C\C/C=C\C/C=C\C/C=C\C/C=C\C/C=C\CCC(=O)O [DHA, docosahexaenoic acid]
